Source: article PMC8262878, “GP96 Drives Exacerbation of Secondary Bacterial Pneumonia following Influenza A Virus Infection” (mBio, 2021)

B1: recombinant AliB (natural protein)
chain: CGNSSTASKTYNYVYSSDPSSLNYLAENRAATSDIVANLVDGLLENDQYGNIIPSLAEDWTVSQDGLTYTYKLRKDAKWFTSEGEEYAPVTAQDFVTGLQYAADKKSEALYLVQDSVAGLDDYITGKTSDFSTVGVKALDDQTVQYTLVKPELYWNSKTLATILFPVNADFLKSKGDDFGKADPSSILYNGPFLMKALVSKSAIEYKKNPNYWDAKNVFVDDVKLTYYDGSDQESLERNFTAGAYTTARLFPNSSSYEGIKEKYKNNIIYSMQNSTSYFFNFNLDRKSYNYTSKTSDIEKKSTQEAVLNKNFRQAINFAFDRTSYGAQSEGKEGATKILRNLVVPPNFVSIKGKDFGEVVASKMVNYGKEWQGINFADGQDPYYNPEKAKAKFAEAKKELEAKGVQFPIHLDKTVEVTDKVGIQGVSSIKQSIESVLGSDNVVIDIQQLTSDEFDSSGYFAQTAAQKDYDLYHGGWGPDYQDPSTYLDIFNTNSGGFLQNLGLEPGEANDKAKAVGLDVYTQMLEEANKEQDPAKRYEKYADIQAWLIDSSLVLPSVSRGGTPSLRRTVPFAAAYGLTGTKGVESYKYLKVQDKIVTTDEYAKAREKWLKEKEESNKKAQEELAKHVK
notes: also called Ali protein; source: E. coli XL10-Gold, pQE30 vector, purified (QIAexpress protein purification system)
B2: recombinant AliA (natural protein)
chain: CSGSGSSTKGEKTFSYIYETDPDNLNYLTTAKAATANITSNVVDGLLENDRYGNFVPSMAEDWSVSKDGLTYTYTIRKDAKWYTSEGEEYAAVKAQDFVTGLKYAADKKSDALYLVQESIKGLDAYVKGEIKDFSQVGIKALDEQTVQYTLNKPESFWNSKTTMGVLAPVNEEFLNSKGDDFAKATDPSSLLYNGPYLLKSIVTKSSVEFAKNPNYWDKDNVHVDKVKLSFWDGQDTSKPAENFKDGSLTAARLYPTSASFAELEKSMKDNIVYTQQDSITYLVGTNIDRQSYKYTSKTSDEQKASTKKALLNKDFRQAIAFGFDRTAYASQLNGQTGASKILRNLFVPPTFVQADGKNFGDMVKEKLVTYGDEWKDVNLADSQDGLYNPEKAKAEFAKAKSALQAEGVQFPIHLDMPVDQTATTKVQRVQSMKQSLEATLGADNVIIDIQQLQKDEVNNITYFAENAAGEDWDLSDNVGWGPDFADPSTYLDIIKPSVGESTKTYLGFDSGEDNVAAKKVGLYDYEKLVTEAGDETTDVAKRYDKYAAAQAWLTDSALIIPTTSRTGRPILSKMVPFTIPFALSGNKGTSEPVLYKYLELQDKAVTVDEYQKAQEKWMKEKEESNKKAQEDLAKHVK
notes: as for B1

Target: T1, recombinant glycoprotein 96 (GP96) (human, UniProt P14625 22-803)
T1 construct: The purification of GP96 and the fate of the GST tag are not described; also called GRP94; Grp94; source: E. coli BL21(DE3), pGEX-6P-1 vector; recombinant protein
T1 sequence (P14625 22-803): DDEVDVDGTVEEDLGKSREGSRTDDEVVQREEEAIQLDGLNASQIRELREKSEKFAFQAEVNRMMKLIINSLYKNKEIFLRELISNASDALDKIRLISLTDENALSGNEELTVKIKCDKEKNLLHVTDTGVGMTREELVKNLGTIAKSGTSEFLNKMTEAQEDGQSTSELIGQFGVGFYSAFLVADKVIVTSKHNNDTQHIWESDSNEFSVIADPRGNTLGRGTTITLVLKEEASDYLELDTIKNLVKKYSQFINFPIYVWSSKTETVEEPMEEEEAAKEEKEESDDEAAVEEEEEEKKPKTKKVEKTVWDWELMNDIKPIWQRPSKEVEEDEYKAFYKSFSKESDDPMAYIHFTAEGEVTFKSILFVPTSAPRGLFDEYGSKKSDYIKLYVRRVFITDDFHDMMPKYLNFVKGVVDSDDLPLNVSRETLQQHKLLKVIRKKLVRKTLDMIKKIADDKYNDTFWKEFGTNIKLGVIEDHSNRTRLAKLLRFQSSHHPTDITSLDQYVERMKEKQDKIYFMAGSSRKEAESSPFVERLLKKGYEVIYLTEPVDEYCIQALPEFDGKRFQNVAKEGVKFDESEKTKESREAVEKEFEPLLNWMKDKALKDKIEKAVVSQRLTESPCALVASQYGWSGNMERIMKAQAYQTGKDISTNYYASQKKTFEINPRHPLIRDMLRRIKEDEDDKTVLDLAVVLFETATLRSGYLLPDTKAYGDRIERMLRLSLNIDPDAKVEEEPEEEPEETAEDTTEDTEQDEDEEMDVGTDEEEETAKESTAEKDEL
Experiment: SPR; BIAcore X-100; GP96 amine-coupled to a CM5 chip; AliA or AliB as analyte at 31.3-500 nM; HBS-P buffer (0.01 M HEPES pH 7.4, 0.15 M NaCl, 0.005% surfactant P20), 37°C, 30 ul/min; 1:1 Langmuir binding model
Conditions: both partners purified

Binder | Kd | koff | kon
B1 | 48.5 nM | 10.1 s⁻¹ | 2.09e+08 M⁻¹ s⁻¹
B2 | 34 nM | 0.000785 s⁻¹ | 23100 M⁻¹ s⁻¹
